Experimental data reported in paper PMC6585716 (Biopolymers, 2017).
Non-standard residues stand in square brackets, D forms with d. No end group written: not given here. code X = not defined here

B1: Bi-LV (X-VEPNCDIHVMWEWECFERL-Tz4-lfrew) (designed binder)
peptide 1: {code X}-VEPNCDIHVMWEWECFERL
peptide 2: [dL][dF][dR][dE][dW]
modifications: not fully specified; printed as X-VEPNCDIHVMWEWECFERL-Tz4-lfrew; cysteine pairing not given here; reading uncertain; also: chain 1 C-terminus joined to chain 2 N-terminus via Tz4
notes: also called anti-VEGF biligand PCC
B2: Tetra-LV (X-VEPNCDIHVMWEWECFERL-Tz4-lfrew-Tz4-eeird-Tz4-qfkyr) (designed binder)
peptide 1: {code X}-VEPNCDIHVMWEWECFERL
peptide 2: [dL][dF][dR][dE][dW]
peptide 3: [dE][dE][dI][dR][dD]
peptide 4: [dQ][dF][dK][dY][dR]
modifications: cysteine pairing not given here; reading uncertain; also: chains joined via Tz4 linkers, N-terminal X not defined, triazole to a chain's N/C-terminus, triazole to a chain's N/C-terminus, triazole to a chain's N/C-terminus, printed as X-VEPNCDIHVMWEWECFERL-Tz4-lfrew-Tz4-eeird-Tz4-qfkyr
notes: also called tetraligand
B3: Tri-LV (X-VEPNCDIHVMWEWECFERL-Tz4-lfrew-Tz4-eeird) (designed binder)
peptide 1: {code X}-VEPNCDIHVMWEWECFERL
peptide 2: [dL][dF][dR][dE][dW]
peptide 3: [dE][dE][dI][dR][dD]
modifications: cysteine pairing not given here; reading uncertain; also: chains joined via Tz4 linkers, N-terminal X not defined, triazole to a chain's N/C-terminus, triazole to a chain's N/C-terminus, printed as X-VEPNCDIHVMWEWECFERL-Tz4-lfrew-Tz4-eeird
notes: also called consensus triligand; 64Cu-DOTA-Tri-LV (N-terminal DOTA conjugate, in vivo)

Tests used:
Conditions in all cases: both partners purified
[1] = target: Recombinant human vascular endothelial growth factor (VEGF165) (human, UniProt P15692-4 1-191, X (detection label) on the N-terminus; disulfide bridge between the two cysteines cyclises …; C-terminal Tz4 (1,4-triazole formed of Az4 and D-propargylglycine) joins it to lfrew | all D-res); assay: not stated; titration giving EC50 ('relative affinities') of PCCs on VEGF, Figure 2A; experimental details in the Supporting Information
Chain of Recombinant human vascular endothelial growth factor (VEGF165) (human, UniProt P15692-4 1-191, X (detection label) on the N-terminus; disulfide bridge between the two cysteines cyclises …; C-terminal Tz4 (1,4-triazole formed of Az4 and D-propargylglycine) joins it to lfrew | all D-res) (P15692 other isoform, or with tags, fused parts or gaps): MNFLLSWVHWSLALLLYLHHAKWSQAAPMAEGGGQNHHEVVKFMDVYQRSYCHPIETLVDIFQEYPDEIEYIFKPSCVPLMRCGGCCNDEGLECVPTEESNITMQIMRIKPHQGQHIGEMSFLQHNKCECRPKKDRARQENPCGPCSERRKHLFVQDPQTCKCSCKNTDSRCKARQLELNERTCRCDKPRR

[2] = target: T1, Recombinant human vascular endothelial growth factor (VEGF165) (human, UniProt P15692-4 1-191, X (detection label) on the N-terminus); disulfide bridge between the two cysteines cyclises …; C-terminal Tz4 (1,4-triazole linker) joins it to lfrew | all D-residues (printed in lowercase: l); assay: as above
T1 sequence (P15692 other isoform, or with tags, fused parts or gaps): as above

[3] = target: T1, Recombinant human vascular endothelial …; assay: inhibition assay; inhibition of VEGF binding to VEGFR2 in the presence of PCCs, Figure 2B; experimental details in the Supporting Information

Binder | fold improvement in EC50 relative to AnchorV [1] | EC50 [2] | IC50 [3]
B1 | 4.5 fold |  | 
B2 |  | 6.1 ± 0.2 nM | 0.74 ± 0.05 nM
B3 |  |  | 2.6 ± 0.5 nM
